Assay results published in paper PMC6328254, “Sequential Regulation of Maternal mRNAs through a Conserved cis-Acting Element in Their 3′ UTRs”.

T1: Pumilio RNA-binding domain (UniProt P25822 1091-1426)
T1 sequence: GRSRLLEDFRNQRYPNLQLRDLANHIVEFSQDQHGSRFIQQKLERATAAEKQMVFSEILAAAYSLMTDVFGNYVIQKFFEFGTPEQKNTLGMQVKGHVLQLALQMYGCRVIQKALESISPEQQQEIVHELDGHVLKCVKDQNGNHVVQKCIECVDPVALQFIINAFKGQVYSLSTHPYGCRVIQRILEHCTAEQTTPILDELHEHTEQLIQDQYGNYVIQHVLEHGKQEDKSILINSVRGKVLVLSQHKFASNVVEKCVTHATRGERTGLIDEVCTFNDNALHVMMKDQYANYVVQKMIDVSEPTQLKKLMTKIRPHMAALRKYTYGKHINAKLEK


How the values were obtained:
Bruno = Bruno (UniProt O02374 1-604); assay: EMSA; 50 mM Tris pH 7.5, 150 mM NaCl, 2 mM DTT, 0.1 mg/ul BSA (so in the source), 0.001% Igepal CA-630, dIdC and yeast tRNA; 20 min at RT; 6% native PAGE at 4 C; settings: protein: recombinant; tags: His (pETM-82; purified on His GraviTrap); label: 5'-32P
Bruno, sequence (O02374 entry or part of it): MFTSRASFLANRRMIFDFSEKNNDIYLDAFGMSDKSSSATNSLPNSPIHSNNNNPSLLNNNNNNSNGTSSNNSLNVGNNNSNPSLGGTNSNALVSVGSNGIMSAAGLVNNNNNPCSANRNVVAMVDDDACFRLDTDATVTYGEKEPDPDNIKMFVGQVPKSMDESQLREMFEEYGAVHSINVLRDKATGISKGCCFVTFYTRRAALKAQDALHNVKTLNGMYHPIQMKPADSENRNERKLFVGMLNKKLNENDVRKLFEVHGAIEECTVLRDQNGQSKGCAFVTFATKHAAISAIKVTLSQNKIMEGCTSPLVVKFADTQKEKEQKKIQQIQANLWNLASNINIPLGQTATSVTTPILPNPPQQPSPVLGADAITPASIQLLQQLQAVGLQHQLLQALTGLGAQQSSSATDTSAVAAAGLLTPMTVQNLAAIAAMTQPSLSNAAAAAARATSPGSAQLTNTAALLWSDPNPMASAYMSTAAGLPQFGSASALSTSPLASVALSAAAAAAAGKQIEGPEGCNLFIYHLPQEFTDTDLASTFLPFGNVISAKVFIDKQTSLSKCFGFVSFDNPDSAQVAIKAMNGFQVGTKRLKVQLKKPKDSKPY

[1] = molecular target: T1, Pumilio RNA-binding domain; assay: as above; settings: protein: recombinant; tags: HaloTag (pFN18K) removed by AcTEV cleavage; label: 5'-32P

| Binder | binding result (Bruno) | binding result [1] |
| --- | --- | --- |
| UUUUUUAAUU (ssRNA) [pgc 3'UTR PRE mutant UUUU] | no binding | no binding |
| UAGACUAUUUGUAAUUUAUAUC (ssRNA) [CycB 3'UTR NRE] |  | binds |
| UUUGUAAAUU (ssRNA) [pgc 3'UTR PRE/BRE] | binds | binds |
| UUUCUCAAUU (ssRNA) [pgc 3'UTR PRE mutant UCUC] | no binding | no binding |
| CUUGAAUGUAUGUUAAUUGUAUGUAUUGAU (ssRNA) [osk 3'UTR BRE] | binds |  |
